Data as given in patent US20160046716A1 (Dana-Farber, published 2016).

Assays:
[1] = molecular target: MICA antigen (UniGene Hs.130838) with a C-terminal BirA tag (human) (UniProt Q29983); test: flow cytometry of MICA-coated streptavidin beads, antibody directly conjugated to PE; legend box says 0.0002ug, label inside the plot 0.002µg/ml; streptavidin bead without MICA: 2.16
[2] = molecular target: MICA antigen (UniGene Hs.130838) with a C-terminal BirA tag (human) (UniProt Q29983); test: flow cytometry of MICA-coated streptavidin beads, antibody directly conjugated to PE; legend box says 0.12ug, the label inside the plot says 0.05µg/ml (they disagree); streptavidin bead without MICA: 1.95
[3] = molecular target: MICA antigen (UniGene Hs.130838) with a C-terminal BirA tag (human) (UniProt Q29983); test: flow cytometry of MICA-coated streptavidin beads, antibody directly conjugated to PE; legend box says 0.024ug, the label inside the plot says 0.01µg/ml (they disagree); streptavidin bead without MICA: 1.95
[4] = molecular target: MICA antigen (UniGene Hs.130838) with a C-terminal BirA tag (human) (UniProt Q29983); test: flow cytometry of MICA-coated streptavidin beads, antibody directly conjugated to PE; legend box says 0.005ug, the label inside the plot says 1.2µg/ml (they disagree); streptavidin bead without MICA: 1.98
[5] = molecular target: human MICA on transduced B16 melanoma cells (human) (UniProt Q29983); test: flow cytometry of B16 cells transduced with human MICA, antibody at 10 ug/ml; unstained 11.4; the same antibody on untransduced B16: 7.49 (unstained 7.12)
human MICA on transduced B16 melanoma cells (human), sequence (Q29983 24-383): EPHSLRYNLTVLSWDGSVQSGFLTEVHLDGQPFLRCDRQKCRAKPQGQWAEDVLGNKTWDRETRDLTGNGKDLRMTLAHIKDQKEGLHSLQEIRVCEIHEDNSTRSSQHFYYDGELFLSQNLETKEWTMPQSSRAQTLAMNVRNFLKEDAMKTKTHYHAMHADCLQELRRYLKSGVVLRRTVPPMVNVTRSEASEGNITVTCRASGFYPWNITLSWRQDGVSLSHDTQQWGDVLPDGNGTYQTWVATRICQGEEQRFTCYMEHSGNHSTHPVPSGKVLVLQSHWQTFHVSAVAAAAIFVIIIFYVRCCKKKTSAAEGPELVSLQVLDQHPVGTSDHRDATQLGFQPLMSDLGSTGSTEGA

[6] = molecular target: MICA antigen (UniGene Hs.130838) with a C-terminal BirA tag (human) (UniProt Q29983); test: flow cytometry of MICA-coated streptavidin beads, antibody directly conjugated to PE; legend box says 0.001ug, the label inside the plot says 0.24µg/ml (they disagree); streptavidin bead without MICA: 1.95
[7] = molecular target: human MICA on transduced B16 melanoma cells (human) (UniProt Q29983); test: […], antibody at 10 ug/ml; […]
[8] = molecular target: MICA antigen (UniGene Hs.130838) with a C-terminal BirA tag (human) (UniProt Q29983); test: flow cytometry of MICA-coated streptavidin beads, Alexa488 anti-human IgG; antibody at 30µg/ml; streptavidin bead without MICA: 3.53
[9] = molecular target: MICA antigen (UniGene Hs.130838) with a C-terminal BirA tag (human) (UniProt Q29983); test: flow cytometry of MICA-coated streptavidin beads, Alexa488 anti-human IgG; antibody at 6µg/ml; streptavidin bead without MICA: 2.63
[10] = molecular target: MICA antigen (UniGene Hs.130838) with a C-terminal BirA tag (human) (UniProt Q29983); test: flow cytometry of MICA-coated streptavidin beads, Alexa488 anti-human IgG; antibody at 0.05µg/ml; streptavidin bead without MICA: 2.18
[11] = molecular target: MICA antigen (UniGene Hs.130838) with a C-terminal BirA tag (human) (UniProt Q29983); test: flow cytometry of MICA-coated streptavidin beads, Alexa488 anti-human IgG; antibody at 1.2µg/ml; streptavidin bead without MICA: 2.16
[12] = molecular target: MICA antigen (UniGene Hs.130838) with a C-terminal BirA tag (human) (UniProt Q29983); test: flow cytometry of MICA-coated streptavidin beads, Alexa488 anti-human IgG; antibody at 0.24µg/ml; streptavidin bead without MICA: 2.3
[13] = molecular target: T1, recombinant MICA alpha 3 domain (human, UniProt Q29983 206-299); test: cytometric bead assay: biotinylated MICA alpha 3 domain on streptavidin beads, FITC anti-human IgG, flow cytometry
T1 construct: domain: alpha 3 domain; also called Alpha 3 MICA Domain
T1 sequence (looked up): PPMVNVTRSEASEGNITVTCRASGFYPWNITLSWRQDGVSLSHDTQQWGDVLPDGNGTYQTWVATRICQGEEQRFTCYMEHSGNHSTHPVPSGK

[14] = molecular target: T2, recombinant MICA*009 conjugated to Luminex beads (commercial kit) (human, UniProt Q29983 26-307); test: Luminex bead assay (One Lambda kit), PE anti-human IgG secondary; bars assigned by their order in the legend box
T2 chain: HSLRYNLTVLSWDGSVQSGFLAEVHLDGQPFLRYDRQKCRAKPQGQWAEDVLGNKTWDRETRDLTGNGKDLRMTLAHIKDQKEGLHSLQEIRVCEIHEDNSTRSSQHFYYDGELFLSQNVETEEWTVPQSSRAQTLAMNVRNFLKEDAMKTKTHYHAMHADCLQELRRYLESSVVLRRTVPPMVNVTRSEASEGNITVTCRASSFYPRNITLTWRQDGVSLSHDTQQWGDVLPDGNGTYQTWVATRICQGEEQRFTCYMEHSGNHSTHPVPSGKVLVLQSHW

MICA antigen (UniGene Hs.130838) with a C-terminal BirA tag (human), sequence (Q29983 other isoform, or with tags, fused parts or gaps limits assumed): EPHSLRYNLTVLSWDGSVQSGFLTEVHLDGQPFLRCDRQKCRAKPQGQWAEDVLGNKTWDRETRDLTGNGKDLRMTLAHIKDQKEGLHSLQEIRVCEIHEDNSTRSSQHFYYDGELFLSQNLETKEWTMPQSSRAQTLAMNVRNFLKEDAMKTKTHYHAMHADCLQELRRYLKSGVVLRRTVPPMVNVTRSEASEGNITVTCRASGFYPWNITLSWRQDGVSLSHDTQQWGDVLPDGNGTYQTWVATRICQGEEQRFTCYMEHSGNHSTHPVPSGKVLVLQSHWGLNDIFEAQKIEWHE

## commercial anti-MICA/MICB monoclonal antibody (clone 6D4, BioLegend)
[1]
  fluorescence value (statistic not given, FL2-H): 4.31
[2]
  fluorescence value (statistic not given, FL2-H): 391
[3]
  fluorescence value (statistic not given, FL2-H): 194
[4]
  fluorescence value (statistic not given, FL2-H): 65.9
[5]
  Geom. Mean:FL1-H: 188
[6]
  fluorescence value (statistic not given, FL2-H): 16.8

## negative control antibody (TTCF specific)
[7]
  Geom. Mean:FL1-H: 11.5
[8]
  fluorescence value (statistic not given, FL1-H): 3.43
[9]
  fluorescence value (statistic not given, FL1-H): 2.62
[10]
  fluorescence value (statistic not given, FL1-H): 2.23
[11]
  fluorescence value (statistic not given, FL1-H): 2.27
[12]
  fluorescence value (statistic not given, FL1-H): 2.28

B1: CM24002 Ab2 (antibody, V domains shown)
VH: QVQLQESGPGLVEPSGTLSLTCTVSGGSISRSNWWSWVRQPPGEGLEWIGEIHHIGRSSYNPSLKSRVTMSVDKSQNQFSLRLTSVTAADTAVYYCAKNGYYAMDVWGQGTTVTVSS
VL: EIVLTQSPGTLSLSPGERATLSCRASQSVSSDFLAWYQQKPGQAPRLLIYATSFRATGISDRFSGSGSGTDFSLTINRLEPEDFAVYYCQHYRSSPPWYTFAQGTKLDMRRTVAAPSV
notes: also called anti-MICA antibody ID-6; antibody ID 6
[13]
  binding result: no binding (tested: 10 µg/ml)

B2: CM24002 Ab4 (antibody, V domains shown)
VH: QVQLQESGPGLVKPSGTLSLTCAVSGASITNGAWWSWVRQPPGKGLEWIGEIYLNGNTNSNPSLKSRVIISVDKSKNHFSLTLNSVTAADTAVYYCAKNAAYNLEFWGQGALVTVSS
VL: EIVLTQSPGTLSLSPGERATLSCRASQTVSSPYVAWYQQKRGQAPRLLIYGASTRATGIPDRFSGSGSGTDFTLTISRLEPEDFAVYYCQQYDRSYYYTFGQGTKLEIK
notes: also called anti-MICA antibody ID-7; antibody ID 7
[13]
  binding result: no binding (tested: 10 µg/ml)

B3: CM33322 Ab11 (antibody, V domains shown)
VH: QVQLQESGPGLVKPSENLSLTCTVSDASMSDYHWSWIRQAAGKGLEWIGRMYSTGSPYYKPSLKGRVTMSIDTSKNQFSLKLASVTAADTAIYYCASGQHIGGWVPPDFWGQGTLVTVSS
VL: DIVMTQTPLSSPVTLGQPASISCRSSEGLVYSDGDTYLSWFHQRPGQPPRLLIYKISNRFSGVPDRFSGSGAGTDFTLKISRVEAEDVGVYYCMQATHFPWTFGQGTKVEVKR
notes: also called CM33322 mAb11; CM33322 11
[13]
  binding result: no binding (tested: 10 µg/ml)

B4: MICA-Ab20 (antibody, V domains shown)
VH: QVQLQQWGAGLLKPSETLALTCAVSGGSFTDHYWSWIRQAPGKGLEWIGEINHSGVTNYNPSLKSRLTISVDTSKSQFSLRLTSVTAADTALYYCAKTGLYYDDVWGTFRPRGGFDSWGQGTLVTVSS
VL: DIVMTQSPDSLAVSLGERATINCKSSQSILYSSDNKNYLAWYQHKPGQPPKLLFYWASIRESGVPDRFSGGGSGTDFTLTISSLQAEDVAVYYCQQYYSPPCSFGQGTKLEIQ
notes: also called anti-MICA antibody ID-1; antibody ID 1
[14]
  binding result: no binding (tested: 200 µg/ml)
